Experimental findings from patent publication US20100015126A1, “Methods of Binding of Cross-Beta Structures By Chaperones” (priority 2006, published 2010) are described below.

The target in this assay is T1, BiP-Sepharose (Homo sapiens, UniProt P11021).
T1 construct: The human BiP gene except the signal peptide encoding region was obtained from Geneart (Germany); linker […]; made in house; host or cells: HEK 293E cells, transient transfection, PABC674 vector; secreted into the medium
The experiment in a line: Experiment 2: BiP-Sepharose extraction from six synovial fluid samples of RA patients and mass spectrometry. Type of assay: binding. As to conditions: BiP-Sepharose eluate, synovial fluid of RA patient. The protocol:
Six samples were incubated with the BiP-Sepharose, IgIV-Sepharose and the control-Sepharose: Normal pooled plasma, plasma of a patient I or of a patient II, with AL amyloidosis, serum of a patient III with RA (Rheumatoid Factor (RF) titer 682), control serum and synovial fluid of a patient IV with RA (RF titer 23). All samples were diluted 20× in HBS and applied to 200 μl beads in two volumes of 500 μl. One volume was incubated for 4 h at RT and supernatant was discarded after centrifugation (2 minutes at 1400 rpm). Subsequently, the second volume was applied to the same matrix and incubated overnight on a roller device at 4° C. […] To collect the eluates, the matrices were centrifuged and the two eluates were pooled for each sample.
Protein digests were desalted as described (Rappsilber et al., 2003), vacuum dried and dissolved in 2.5% formic acid.
For analysis of peptide mixtures, an Agilent 1100 HPLC system (Agilent Technologies) connected to a Thermo Finnigan LTQ-MS (Thermo Electron, Bremen, Germany) was used. Protein digests were injected on a trap column (Reprosil C18 RP (Dr Maisch, Germany), 20 mm×100 μm I.D.) at 5 μl/minute. Subsequently, the peptides were transferred with a split-reduced flow rate of 100 nL/minute solvent A (0.1 M acetic acid) on the analytical column (Reprosil C18 RP, 20 cm×50 μm I.D.). […] The column effluent was directly introduced into the ESI source of the mass spectrometer via a butt-connected nano-ESI emitter (New Objectives, Woburn, Mass.). The mass spectrometer was operated in the positive ion mode and parent ions were selected for fragmentation in data-dependent mode.
After mass spectrometric measurements, peak lists were generated using BioWorks software (Thermo Electron, Bremen, Germany). Protein identification was performed using Mascot software (www.matrixscience.com) by searching the IPIhuman database (version 3.24, downloaded from ftp://ftp.ebi.ac.uk/pub/databases/IPI/current) using the following settings: fully tryptic peptides, peptide tolerance 0.8 Da, MS/MS tolerance 0.9 Da, 1 missed cleavage allowed, carbamidomethyl (Cys) and oxidation (Met) as fixed and variable modification, respectively. The Scaffold software package (www.proteomesoftware.com) was used to parse the data and to filter peptides at a confidence level of 95%, allowing only protein identification with at least 2 peptides identified.
Those samples are listed below: • 1. […] One difference when compared to the protocol described above is that now with the twelve samples, elution buffer comprised 1 M NaCl. Again, a misfolded protein or a protein binding to misfolded protein is identified uniquely in the synovial fluid when no or a relatively very low number of fragments are detected in eluates of control-Sepharose.

T1 sequence (P11021 19-654): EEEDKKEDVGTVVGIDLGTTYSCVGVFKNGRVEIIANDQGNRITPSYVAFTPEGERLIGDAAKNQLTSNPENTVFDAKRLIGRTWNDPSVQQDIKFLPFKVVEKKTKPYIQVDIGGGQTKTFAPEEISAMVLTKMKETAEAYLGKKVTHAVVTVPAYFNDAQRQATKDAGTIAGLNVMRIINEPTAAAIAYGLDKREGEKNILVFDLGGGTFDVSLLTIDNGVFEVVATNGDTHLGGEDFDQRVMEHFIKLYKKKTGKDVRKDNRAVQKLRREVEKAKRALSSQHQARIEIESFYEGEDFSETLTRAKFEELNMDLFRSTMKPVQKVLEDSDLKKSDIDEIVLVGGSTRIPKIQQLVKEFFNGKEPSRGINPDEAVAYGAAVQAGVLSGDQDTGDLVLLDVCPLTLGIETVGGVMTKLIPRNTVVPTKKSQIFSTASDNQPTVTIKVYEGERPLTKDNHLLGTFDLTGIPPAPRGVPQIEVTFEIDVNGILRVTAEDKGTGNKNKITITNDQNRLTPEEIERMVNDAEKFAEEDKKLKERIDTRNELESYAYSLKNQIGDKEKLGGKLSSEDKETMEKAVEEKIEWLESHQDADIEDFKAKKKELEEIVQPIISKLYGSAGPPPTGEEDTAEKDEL

For the substance 187 kDa protein, complement component 3, the “# of unique peptides” value by setting is: (Sample 1B) 2; (Sample 5B) 1.

As for Apolipoprotein A-I precursor, the “# of unique peptides” value (Sample 1B) was 3 and the “# of unique peptides” value (Sample 3B) was found to be 8.

Turning to Apolipoprotein A-II precursor, where the note is “Sample 1B”, the “# of unique peptides” value is reported as 1.

As for Apolipoprotein B-100 precursor, the “# of unique peptides” value runs as follows: (Sample 1B) 9; (Sample 3B) 12.

On to Clusterin precursor, for which the “# of unique peptides” value (Sample 1B) amounted to 1, the “# of unique peptides” value (Sample 2B) is recorded as 1 and the “# of unique peptides” value (Sample 3B) was determined as 1.

Consider HSPA5 protein/BiP, for which the “# of unique peptides” value reads like this: (Sample 1B) 21; (Sample 2B) 12; (Sample 3B) 19; (Sample 4B) 10; (Sample 5B) 10; (Sample 6B) 17.

Turning to Haptoglobin precursor, the “# of unique peptides” value (Sample 1B) was found to be 1 and the “# of unique peptides” value (Sample 3B) was found to be 3.

With Heat shock 70 kDa protein 1L, the “# of unique peptides” value came out at 1 (Sample 1B); 1 (Sample 2B); 1 (Sample 3B); 1 (Sample 5B); 1 (Sample 6B).

In the case of “IGHG4 protein, immunoglobulin heavy constant gamma 4”, the “# of unique peptides” value is 4 (Sample 1B) and 1 (Sample 2B).

Take “IGKV1-5 protein, immunoglobulin kappa variable 1-5”: the “# of unique peptides” value runs as follows: (Sample 1B) 3; (Sample 3B) 5.

On to “Ig kappa chain V-IV region Len, immunoglobulin kappa variable 4-1”, for which the “# of unique peptides” value (Sample 3B) stood at 1.

For the substance “Isoform 1 of Fibrinogen alpha chain precursor”, the “# of unique peptides” value (Sample 1B) amounted to 3.

For the substance Neutrophil defensin 1 precursor, the “# of unique peptides” value runs as follows: (Sample 2B) 1; (Sample 3B) 1.

On to Serotransferrin precursor, for which the “# of unique peptides” value (Sample 5B) was determined as 1.

In the case of “Single-chain Fv (Fragment), Ig heavy chain V-III region TRO”, where the note is “Sample 1B”, the “# of unique peptides” value amounted to 2.

As to Vitronectin precursor, the “# of unique peptides” value by setting is: (Sample 1B) 1; (Sample 5B) 2; (Sample 6B) 1.

For the substance fibronectin 1 isoform 4 preproprotein, the “# of unique peptides” value is, setting by setting: (Sample 1B) 10; (Sample 2B) 2; (Sample 5B) 2.
